Measured values reported in publication PMC9605988, “Juxtaposition of Bub1 and Cdc20 on phosphorylated Mad1 during catalytic mitotic checkpoint complex assembly” (Nature Communications, 2022).
Entries after “also recorded” stand apart in the source; their conditions may differ.

What was measured:
[1] = system: AF488-Bub1CD1:Mad1CTD complex (unphosphorylated); assay: Fluorescence anisotropy: Cdc20N titrated into preformed AF488-Bub1CD1:Mad1CTD complex; format: binding, human
Procedure: (§1) All reactions were completed in a buffer of 25 mM HEPES pH 7.75, 1 mM TCEP, 100 mM NaCl, 0.05% (v/v) Tween-20. […] Measurements were performed with a PheraStar plate reader FSX plate reader (BMG Labtech) using an optic module for λex = 485 nm, λem = 520 nm. Reactions were carried out in a total volume of 40 μl at 25 °C in a black, flat-bottom, non-binding surface 384-well plate (Corning). All experiments were performed as technical triplicates and data were analysed in PRISM 9.3.1 (GraphPad Software).

[2] = system: AF488-Bub1CD1:pMad1CTD complex; assay: Fluorescence anisotropy: Cdc20N titrated into preformed AF488-Bub1CD1:pMad1CTD complex; format: binding, human; details: preformed AF488-Bub1CD1:pMad1CTD
[3] = system: Mad1CTD R617E/K619D mutant; assay: SEC-MALS, Cdc20N with Mad1CTD R617E/K619D; format: binding, human; details: 1:1.2 ratio Mad1CTD dimer to Cdc20N
Procedure: (§2) Size-exclusion chromatography coupled with multi-angle static light scattering (SEC-MALS), was performed using an Agilent 1200 series LC system with an online Dawn Helios ii system (Wyatt) equipped with a QELS + module (Wyatt) and an Optilab rEX differential refractive index detector (Wyatt). About 100 μl purified protein at ~3.0 mg/ml was auto-injected onto Superdex 75 or a Superdex 200 Increase 10/300 GL column (GE Healthcare) and run at 0.5 ml/min. The molecular masses were analysed with ASTRA 7.3.0.11 (Wyatt). Data were plotted using Prism 8.4.3 (GraphPad Software, Inc). Purified Cdc20^N and Cdc20^N mutants were incubated with Mad1^CTD wild-type or mutants at a 1:1.2 ratio of Mad1^CTD dimer to Cdc20^N.

[4] = target: T1, Mad1CTD (unphosphorylated) (Homo sapiens, UniProt Q9Y6D9); assay: 1H,15N HSQC / CON NMR titration with unphosphorylated Mad1CTD; format: binding; details: residues 616-660 of Mad1CTD in HSQC; N-terminal half of Cdc20N in CON
T1 construct: the C-terminal domain of Mad1 (residue 597–718); made in house
T1 sequence (Q9Y6D9 597-718): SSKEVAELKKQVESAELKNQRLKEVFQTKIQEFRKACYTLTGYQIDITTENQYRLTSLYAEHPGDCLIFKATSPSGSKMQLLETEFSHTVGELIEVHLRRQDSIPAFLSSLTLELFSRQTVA
Procedure: (§3) Uniformly-labelled proteins were expressed in M9 minimal media (6 g/L Na2HPO4, 3 g/L KH2PO4, 0.5 g/L NaCl) supplemented with 1.7 g/L yeast nitrogen base without NH4Cl and amino acids (Sigma Y1251). 1 g/L ^15NH4Cl and 4 g/L unlabelled glucose were supplemented for ^15N labelling. For ^13C/ ^15N double-labelled samples, unlabelled glucose was replaced with 3 g/L ^13C-glucose. Prior to all NMR experiments, proteins were dialysed into 20 mM HEPES, pH 7.0, 100 mM NaCl and 1 mM TCEP.
The following protein concentrations were used in NMR studies: ^1H,^15N HSQC of Mad1^CTD were collected with a 100 µM sample, whereas a 50 µM sample was used for titrations with Cdc20^N and Cdc20^α1. […] To follow the O-to-C conversion of Mad2, the samples were prepared on ice and monitored using BEST ^1H,^15N-TROSY HSQC. […]
(§4) For binding studies, the relative peak intensities were normalised to the C-terminal residue Ala718 of Mad1^CTD or Gly73 of Cdc20^N and expressed as PIbound/PIfree, with PIfree and PIbound being the peak heights of the free and bound forms, respectively. Weighted chemical shift perturbations were calculated using the equation[63]: Δδ = [(ΔδHNWHN)^2 + (ΔδNWN)^2)^2]^1/2 where ΔδHN and ΔδN are the chemical shift perturbations in ^1H and ^15N dimensions respectively. The weight factors were determined from the average variances of chemical shifts in the BMRB database, where WHN = 1 and WN = 0.16.

[5] = target: T1, Mad1CTD (unphosphorylated); assay: SEC-MALS, Cdc20N with unphosphorylated Mad1CTD; format: binding; details: 1:1.2 ratio Mad1CTD dimer to Cdc20N
Procedure: as §2

pMad1CTD = assay: 1H,15N HSQC / CON NMR titration with pMad1CTD; format: binding, human; details: pMad1CTD
Procedure: as §3
The following protein concentrations were used in NMR studies: ^1H,^15N HSQC of Mad1^CTD were collected with a 100 µM sample, whereas a 50 µM sample was used for titrations with Cdc20^N and Cdc20^α1. Cdc20^Box1 peptide was added at mM concentrations to minimise dilution during titration. […] Mad1^CTD was concentrated to 3 mM for titrations into Cdc20^N. ^1H,^15N HSQC of Mad2 were collected at 100 µM. All Mad2 NMR samples contain an R133A mutation to prevent Mad2 dimerisation. The C-Mad2 sample additionally contains an L13A mutation which favours the C-Mad2 state. Cdc20^MIM-bound C-Mad2 sample was prepared by adding a 1:2 excess of Cdc20^MIM peptide to an O-Mad2 sample with R133A mutation. To follow the O-to-C conversion of Mad2, the samples were prepared on ice and monitored using BEST ^1H,^15N-TROSY HSQC. The spectra were acquired with 16 scans and a recycle delay of 400 msec, giving an experimental time of 12 min per spectrum.
Mad1^CTD and Mad2 experiments were performed using an in-house 800 MHz Avance III spectrometer and Cdc20^N experiments were performed using an in-house 700 MHz Avance II + spectrometer, both equipped with triple resonance TCI CryoProbes. To retrieve signals that suffer from exchange broadening, we also utilised the Bruker 950 MHz Avance III spectrometer located at MRC Biomedical NMR Centre (Francis Crick Institute). Mad1^CTD and Mad2 spectra were collected at 298 K. Cdc20^N spectra were collected at 278 K to minimise exchange broadening for the largely disordered Cdc20^N.
as §4

pMad1CTD homodimer = assay: AUC-SE (sedimentation equilibrium) of pMad1CTD and Cdc20N; format: binding, human; details: for calculated mass of major species (Cdc20N:pMad1CTD): 20 °C, expected 35.7 kDa
Procedure: Sedimentation equilibrium experiments were carried out in a buffer of 20 mM HEPES pH 7.5, 100 mM NaCl and 1 mM TCEP. Samples were loaded into 12 mm six-sector cells, placed in an An-50Ti rotor and centrifugated at 10,200, 12,200 and 21,000 rpm at 20 °C until equilibrium had been reached using an Optima XL-I analytical ultracentrifuge (Beckman). The data were analysed in SEDPHAT 15.2b[68]. The partial-specific volumes (v-bar) were calculated using Sednterp[69]. The density and viscosity of the buffer were determined with a DMA 4500 M density metre (Anton Parr) and an AMVn viscometer (Anton Paar). Data were plotted with the program GUSSI[70].

pMad1CTD (Mad1CTD pT716) = assay: SEC-MALS, Cdc20N with pMad1CTD; format: binding, human
Procedure: as §2

[6] = Aggregation or non-specific binding at high concentration in the fluorescence anisotropy assay; format: physicochemical; details: further titration of Cdc20N to saturation; total fluorescence intensity
Procedure: as §1

B1: Cdc20^N: N-terminal truncation of human Cdc20 (residues 1–73) (protein)
chain: MAQFAFESDLHSLLQLDAPIPNAPPARWQRKAKEAAGPAPSPMRAANRSHSAGRTPGRTPGKSSSKVQTTPSK
modifications: left off: His6, N-terminal, cleaved | MBP, N-terminal, cleaved
In the case of B1, the “change in fluorescence anisotropy on Cdc20N titration (competition test)” value [1] is reported as “increased the fluorescence anisotropy”, the “change in fluorescence anisotropy on Cdc20N titration (competition test)” value [2] is reported as “increased the fluorescence anisotropy” and the “binding by SEC-MALS” value [3] is reported as “did not bind”. For the same molecule, the “NMR signal attenuation / line broadening” value [4] was “Significant signal attenuation; also recorded: substantial signal attenuation”, the “binding by SEC-MALS” value [5] was “did not bind; also recorded: no binding” and the “NMR signal attenuation / line broadening” value (pMad1CTD) was “more pronounced and extensive; also recorded: More significant signal attenuation”. For the same molecule, the “calculated mass of major species (Cdc20N:pMad1CTD)” value (pMad1CTD homodimer; 20 µM Mad1CTD + 40 µM Cdc20N) was 32.6 kDa, the “calculated mass of major species (Cdc20N:pMad1CTD)” value (pMad1CTD homodimer; 20 µM Mad1CTD + 80 µM Cdc20N) was 35.9 kDa and the “stoichiometry on pMad1CTD homodimer” value (pMad1CTD homodimer; even with four-fold molar excess of Cdc20N) was “only a single copy of Cdc20^N bound”. The “binding by SEC-MALS” value (pMad1CTD (Mad1CTD pT716); 1:1.2 ratio Mad1CTD dimer to Cdc20N) was “formed a stable complex”, the “observed mass of pMad1CTD:Cdc20N complex” value (pMad1CTD (Mad1CTD pT716); SEC-MALS, expected 36 kDa for pMad1CTD dimer with one Cdc20N) was 38 kDa and the “aggregation or non-specific binding to the plate” value [6] was “large increases in the total fluorescence intensity indicating aggregation or non-specific binding to the plate”.
